Changes are numbered by the printed parent chain. Numbers in names are those of the source.
B1: Lip-VIN3VEL (residues 500-603), wild type (domain or fragment)
chain: GKQGGNKRFKSRTVSLNEKPEINNAANGVGDKDLGHIVKTIRCLEEEGHIDKSFRERFLTWYSLRATHREVRVVKIFVETFMEDLSSLGQQLVDTFSESILSKR
B2: Lip-VIN3VEL (residues 500-603) I575T (domain or fragment)
chain: B1 chain with I76T

Molecular target: the molecule itself
Assay: SEC-MALS

Protein	binding result
B1	binds
B2	binds

From article doi:10.1101/2024.02.15.580496 (bioRxiv, 2024)
